The source of these data is patent US20250263476A1 (ARGENX, published 2025).

Assay [1] deals with T1, C2 from rat (rat, UniProt Q8CIP8 19-758).
T1 sequence: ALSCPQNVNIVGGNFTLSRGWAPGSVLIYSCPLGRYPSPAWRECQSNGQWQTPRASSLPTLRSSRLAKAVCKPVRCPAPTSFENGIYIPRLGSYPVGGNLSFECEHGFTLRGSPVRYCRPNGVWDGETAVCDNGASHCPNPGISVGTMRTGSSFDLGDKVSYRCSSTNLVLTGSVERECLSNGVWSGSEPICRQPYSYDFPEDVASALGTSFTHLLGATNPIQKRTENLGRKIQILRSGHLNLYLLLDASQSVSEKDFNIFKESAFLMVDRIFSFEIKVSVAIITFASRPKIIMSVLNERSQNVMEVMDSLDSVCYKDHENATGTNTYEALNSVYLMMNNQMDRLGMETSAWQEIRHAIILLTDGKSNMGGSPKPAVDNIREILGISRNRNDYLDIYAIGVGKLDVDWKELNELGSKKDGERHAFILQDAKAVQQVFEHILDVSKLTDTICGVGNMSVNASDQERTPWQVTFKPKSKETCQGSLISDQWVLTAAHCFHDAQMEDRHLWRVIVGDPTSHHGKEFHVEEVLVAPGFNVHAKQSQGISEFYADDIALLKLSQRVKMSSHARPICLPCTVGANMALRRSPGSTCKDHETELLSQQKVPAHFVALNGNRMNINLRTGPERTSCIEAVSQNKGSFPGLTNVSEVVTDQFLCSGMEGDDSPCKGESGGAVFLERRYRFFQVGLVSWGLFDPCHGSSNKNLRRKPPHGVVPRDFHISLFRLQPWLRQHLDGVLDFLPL
Briefly: not described.

For assay [2], the target named is T2, C2 from rabbit (rabbit, UniProt G1SS66 21-744).
T2 sequence: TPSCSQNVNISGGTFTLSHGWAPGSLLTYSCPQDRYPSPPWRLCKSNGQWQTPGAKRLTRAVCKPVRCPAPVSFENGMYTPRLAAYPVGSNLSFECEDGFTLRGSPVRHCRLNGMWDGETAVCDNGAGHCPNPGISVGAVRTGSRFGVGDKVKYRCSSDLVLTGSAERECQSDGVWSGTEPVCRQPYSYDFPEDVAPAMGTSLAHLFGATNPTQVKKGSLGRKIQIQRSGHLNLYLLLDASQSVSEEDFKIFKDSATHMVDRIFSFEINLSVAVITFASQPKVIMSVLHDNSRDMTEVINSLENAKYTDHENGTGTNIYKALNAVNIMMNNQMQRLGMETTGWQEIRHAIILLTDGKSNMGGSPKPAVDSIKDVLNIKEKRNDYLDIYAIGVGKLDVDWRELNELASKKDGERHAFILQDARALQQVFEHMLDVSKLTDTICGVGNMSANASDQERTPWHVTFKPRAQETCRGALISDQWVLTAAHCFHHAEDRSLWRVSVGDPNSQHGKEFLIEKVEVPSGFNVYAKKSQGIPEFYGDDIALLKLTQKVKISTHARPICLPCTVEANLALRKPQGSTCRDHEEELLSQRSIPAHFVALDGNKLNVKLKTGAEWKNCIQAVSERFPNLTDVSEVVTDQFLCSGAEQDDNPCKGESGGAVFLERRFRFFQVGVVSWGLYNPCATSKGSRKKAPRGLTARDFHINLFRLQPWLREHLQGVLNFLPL
Briefly: not described.

Assay [3] concerns the target T3, C2 from mouse (mouse, UniProt P21180 19-760, limits assumed).
T3 sequence (looked up): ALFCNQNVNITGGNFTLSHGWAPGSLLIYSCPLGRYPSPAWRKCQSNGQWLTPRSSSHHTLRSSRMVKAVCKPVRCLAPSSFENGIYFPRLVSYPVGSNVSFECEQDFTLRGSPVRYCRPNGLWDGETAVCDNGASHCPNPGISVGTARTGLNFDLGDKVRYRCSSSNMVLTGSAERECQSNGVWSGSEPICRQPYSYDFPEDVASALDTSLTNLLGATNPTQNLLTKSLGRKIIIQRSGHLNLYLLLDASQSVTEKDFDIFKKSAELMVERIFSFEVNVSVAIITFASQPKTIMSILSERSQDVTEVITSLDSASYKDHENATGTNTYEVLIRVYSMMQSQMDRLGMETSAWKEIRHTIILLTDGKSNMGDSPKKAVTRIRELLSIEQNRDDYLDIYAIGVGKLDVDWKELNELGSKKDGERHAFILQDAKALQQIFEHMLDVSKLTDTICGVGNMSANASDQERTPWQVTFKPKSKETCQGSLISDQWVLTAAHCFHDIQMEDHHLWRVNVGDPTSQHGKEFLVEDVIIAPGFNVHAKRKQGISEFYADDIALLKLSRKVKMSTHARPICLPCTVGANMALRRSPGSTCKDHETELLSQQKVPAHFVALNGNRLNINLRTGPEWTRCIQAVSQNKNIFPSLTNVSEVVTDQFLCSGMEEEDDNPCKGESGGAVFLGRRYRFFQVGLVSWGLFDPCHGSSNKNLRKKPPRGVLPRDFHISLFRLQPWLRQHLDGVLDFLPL
Description: not described.

The target of assay [4] is T4, human complement component 2 (C2) (human, UniProt P06681 21-752, limits assumed).
T4 construct: also called human C2
T4 sequence (looked up): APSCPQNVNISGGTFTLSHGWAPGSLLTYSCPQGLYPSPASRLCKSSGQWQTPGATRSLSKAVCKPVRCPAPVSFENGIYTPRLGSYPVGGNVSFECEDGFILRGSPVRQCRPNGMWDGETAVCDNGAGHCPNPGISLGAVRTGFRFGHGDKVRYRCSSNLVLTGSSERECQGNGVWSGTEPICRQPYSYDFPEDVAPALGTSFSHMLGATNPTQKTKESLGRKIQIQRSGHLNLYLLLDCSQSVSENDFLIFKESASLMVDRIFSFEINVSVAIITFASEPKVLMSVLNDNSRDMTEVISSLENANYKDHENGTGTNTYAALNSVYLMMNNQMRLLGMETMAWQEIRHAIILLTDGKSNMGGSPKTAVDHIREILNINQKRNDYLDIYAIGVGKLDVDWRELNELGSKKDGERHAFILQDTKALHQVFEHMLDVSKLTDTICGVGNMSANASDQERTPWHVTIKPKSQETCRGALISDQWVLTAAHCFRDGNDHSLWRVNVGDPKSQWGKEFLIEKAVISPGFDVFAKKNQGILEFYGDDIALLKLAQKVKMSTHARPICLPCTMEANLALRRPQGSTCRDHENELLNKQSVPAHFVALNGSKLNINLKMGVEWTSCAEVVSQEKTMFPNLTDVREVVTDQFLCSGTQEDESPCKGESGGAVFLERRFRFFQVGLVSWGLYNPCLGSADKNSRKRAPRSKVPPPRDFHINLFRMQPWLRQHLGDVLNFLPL
Description: method not described; binding stated to be pH- and Ca2+-dependent; lower end of the printed range for human C2; pH/Ca2+ condition not stated.

The target of assay [5] is T5, cynomolgus monkey C2 (cynomolgus monkey, UniProt G8F3W0 21-752).
T5 sequence: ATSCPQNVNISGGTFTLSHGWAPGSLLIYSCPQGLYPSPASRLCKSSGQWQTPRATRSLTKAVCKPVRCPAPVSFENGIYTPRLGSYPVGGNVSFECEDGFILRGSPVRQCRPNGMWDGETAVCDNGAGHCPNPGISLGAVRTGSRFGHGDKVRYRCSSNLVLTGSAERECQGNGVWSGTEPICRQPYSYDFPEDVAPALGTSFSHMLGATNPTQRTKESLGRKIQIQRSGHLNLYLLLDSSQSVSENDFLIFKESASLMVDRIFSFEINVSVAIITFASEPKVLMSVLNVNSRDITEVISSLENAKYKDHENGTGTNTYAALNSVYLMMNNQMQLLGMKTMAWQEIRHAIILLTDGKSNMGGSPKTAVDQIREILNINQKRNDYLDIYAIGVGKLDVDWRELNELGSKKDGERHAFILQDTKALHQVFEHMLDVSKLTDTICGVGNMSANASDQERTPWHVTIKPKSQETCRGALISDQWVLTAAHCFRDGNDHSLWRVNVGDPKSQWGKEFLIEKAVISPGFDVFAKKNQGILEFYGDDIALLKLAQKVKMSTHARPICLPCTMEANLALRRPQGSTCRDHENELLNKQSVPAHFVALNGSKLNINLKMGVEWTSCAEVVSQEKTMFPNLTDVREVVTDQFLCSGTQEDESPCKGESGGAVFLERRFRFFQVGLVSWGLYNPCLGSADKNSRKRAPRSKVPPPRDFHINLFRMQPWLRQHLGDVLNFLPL
Briefly: method not described; binding stated to be pH- and Ca2+-dependent; lower end of the printed range for cynomolgus C2; pH/Ca2+ condition not stated.

B1: ARGX-117 (antibody, human IgG1, kappa, L234A L235A, V domains shown)
VH: EVQLVQSGAEVKKPGASVKVSCKASGYTFTDYNMDWVRQATGQGLEWIGDINPNYESTGYNQKFKGRATMTVDKSISTAYMELSSLRSEDTAVYYCAREDDHDAFAYWGQGTLVTVSS
VL: DNVLTQSPDSLAVSLGERATISCRASKSVRTSGYNYMHWYQQKPGQPPKLLIYLASNLKSGVPDRFSGSGSGTDFTLTISSLQAEDAATYYCQHSRELPYTFGQGTKLEIKR
notes: also called anti-C2 antibody
Usually Kd stands for the equilibrium constant for the complex coming apart. Take B1: the binding result in assay [1], in assay [2] and in assay [3] was “no binding” in each case. In addition, the Kd fell in the range of 109 to 2020 pM in assay [4] and 56 to 130 pM in assay [5].
